Experimental data taken from PMC4053984.

Target: PRDM9Cst (Mus musculus (CAST/EiJ)) (UniProt Q96EQ9)
Experiment: EMSA competition
Details: 10 mM Tris pH 7.5, 50 mM KCl, 1 mM DTT, 50 ng/ul poly(dI/dC), 0.05% NP-40, 0.5 pmol labelled dsDNA (printed pmol/l), 3 ul E. coli extract in 20 ul, 40 min, 5% …

PRDM9Cst (Mus musculus (CAST/EiJ)), sequence (Q96EQ9 whole entry): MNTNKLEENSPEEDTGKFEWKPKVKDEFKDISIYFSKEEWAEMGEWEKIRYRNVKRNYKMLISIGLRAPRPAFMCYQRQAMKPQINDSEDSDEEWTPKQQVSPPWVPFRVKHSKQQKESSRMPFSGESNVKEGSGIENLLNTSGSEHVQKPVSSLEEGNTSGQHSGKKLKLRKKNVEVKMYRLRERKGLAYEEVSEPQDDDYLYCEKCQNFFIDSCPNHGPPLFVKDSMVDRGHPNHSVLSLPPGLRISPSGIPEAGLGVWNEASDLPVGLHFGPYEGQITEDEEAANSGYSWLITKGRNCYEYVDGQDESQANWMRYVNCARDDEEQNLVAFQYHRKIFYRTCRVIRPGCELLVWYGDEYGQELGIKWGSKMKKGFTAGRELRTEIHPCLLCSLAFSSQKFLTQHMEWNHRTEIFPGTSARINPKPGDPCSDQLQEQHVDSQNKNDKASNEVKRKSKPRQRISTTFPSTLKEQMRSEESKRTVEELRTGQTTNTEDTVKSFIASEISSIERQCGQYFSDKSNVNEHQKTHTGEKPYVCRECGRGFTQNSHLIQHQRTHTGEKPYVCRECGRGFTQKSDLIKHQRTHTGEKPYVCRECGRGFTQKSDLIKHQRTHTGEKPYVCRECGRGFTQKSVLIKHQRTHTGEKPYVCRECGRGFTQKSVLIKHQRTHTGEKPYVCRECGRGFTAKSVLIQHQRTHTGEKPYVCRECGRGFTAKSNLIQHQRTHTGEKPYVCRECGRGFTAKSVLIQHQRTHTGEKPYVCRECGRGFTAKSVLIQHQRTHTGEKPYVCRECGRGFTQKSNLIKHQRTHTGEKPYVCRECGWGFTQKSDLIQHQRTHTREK

| Sequence | binding signal (scale: reference) | binding signal (fold stronger than CAST sequence) |
| --- | --- | --- |
| ATAAGTGTTCAGACTTGGACTCTGCCCTTCCTTTAC (double strand) [Hlx1 36 bp CAST] | 1 | – |
| ATAGTGTGCAGACTTGGACCCTGCCCTTTCTTTACG (double strand) [Hlx1 36 bp B6] | – | 2.9 |
